From patent US20250000991A1, “NECTIN-4 ANTIBODIES AND ANTIBODY-DRUG CONJUGATES” (Eli Lilly and Company, priority 2023, published 2025) come the findings set out here.

One assay deals with T1, human Nectin-4 (Homo sapiens, UniProt Q96NY8).
T1 construct: His tag; purchased Acro Biosystems NE4-H52H3
T1 sequence (Q96NY8 32-510): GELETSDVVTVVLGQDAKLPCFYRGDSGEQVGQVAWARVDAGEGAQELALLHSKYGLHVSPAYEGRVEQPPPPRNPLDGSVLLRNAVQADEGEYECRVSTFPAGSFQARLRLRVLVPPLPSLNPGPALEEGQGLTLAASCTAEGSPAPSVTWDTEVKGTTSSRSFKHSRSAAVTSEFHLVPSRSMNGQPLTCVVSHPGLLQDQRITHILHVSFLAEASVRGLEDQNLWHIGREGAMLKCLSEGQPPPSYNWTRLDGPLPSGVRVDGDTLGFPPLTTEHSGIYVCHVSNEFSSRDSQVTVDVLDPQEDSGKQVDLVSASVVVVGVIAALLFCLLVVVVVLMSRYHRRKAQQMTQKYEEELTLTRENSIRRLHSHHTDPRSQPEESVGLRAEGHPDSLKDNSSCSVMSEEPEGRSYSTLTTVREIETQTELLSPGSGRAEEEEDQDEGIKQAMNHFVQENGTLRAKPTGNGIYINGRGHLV
Briefly: Surface plasmon resonance (Biacore 8K+) binding of nectin-4 ADCs to human Nectin-4. Conditions: human Nectin-4, 37° C., ADC Formula XI DAR 8; n=3 mean ± SD, n=2 replicate values. The procedure: (§1) An anti-human Fc sensor surface was prepared by amine-coupling of goat anti-human IgG Fc (Southern Biotech Cat. No. 2014-01, Birmingham, AL) to a Biacore Series S CM4 (Cytiva Cat. No. BR-100534) sensor surface at 25° C. For immobilization, a running buffer of 10 mM HEPES, 150 mM NaCl, 0.05% Tween-20, pH 7.4 was used. Flow cells 1 & 2 of all 8 channels were activated with a 1:1 (v/v) mixture of 400 mM 1-Ethyl-3-(3-dimethylaminopropyl) carbodiimide hydrochloride (EDC) and […] N-Hydroxysuccinimide (NHS) at a flow rate of 10 uL/min for 7 minutes. Then the anti-human IgG Fc capture reagent was coupled to the sensor surface (diluted to 50 μg/mL in 10 mM Acetate pH 4.5 buffer) by injecting it in all flow cells and channels at a flow rate of 10 uL/min for 7 minutes. Remaining active groups were blocked by injecting 100 mM ethylenediamine (in 200 mM Borate buffer, pH 8.5) in all flow cells and channels at a flow rate of 10 uL/min for 7 minutes. All channels and flow cells were then preconditioned using three consecutive 1-minute injections of 75 mM phosphoric acid at 10 uL/min.
(§2) In each analysis cycle, a different ADC was captured on flow cell 2 of each channel by injecting it at 5 μg/mL and 10 uL/min. After capture, the same analyte was injected on flow cells 1 and 2 in all 8 channels for 2 minutes at 30 uL/n and dissociation was monitored for 10 minutes. After dissociation, all surfaces were regenerated with three 1-minute injections of 5 mM phosphoric acid at 10 uL/min. ADC capture and analyte cycles were repeated to obtain analyte binding of each ADC at concentrations of 0, 2.5, 7.4, 22, 67, 200 and 600 nM nectin-4.
(§3) Sensorgram data were fit globally with the default 1:1 binding model in Biacore Insight Evaluation Software v3.0.12.15655.

Another assay concerns cyno Nectin-4. Briefly: Surface plasmon resonance (Biacore 8K+) binding of nectin-4 ADCs to cyno Nectin-4. Conditions: cyno Nectin-4, 37° C., ADC Formula XI DAR 8, n=1. The procedure:
as §1, §2, §3
A general note: In SPR one partner is held on a chip, and binding of the other changes the refractive index at the surface.

The next assay deals with rat Nectin-4. Briefly: Surface plasmon resonance (Biacore 8K+) binding of nectin-4 ADCs to rat Nectin-4. To be noted: rat Nectin-4, 37° C., ADC Formula XI DAR 8, n=1. On the procedure:
as §1, §2, §3

Assay [1] deals with T24 mScarlet clone 5 Nectin-4 negative cells. Briefly: Bystander killing of T24-mScarlet clone 5 cells co-cultured with T24-human nectin4 clone108 (imaging). Type of assay: cell-based. To be noted: T24-mScarlet clone5 : T24-human nectin4 clone108 9:1, 5 days, ADC Formula XI DAR 8; read-out: IC50 of bystander effect. On the procedure:
T24 cell line was engineered to express mScarlet and clonally selected to test in bystander assay. T24-mScarlet clone5 and T24-human nectin4 clone108 were mixed and seeded at a total of 1000 cells/well/100 ul with a ratio of 9:1 in culture medium (McCoy's 5A+1× GlutaMax+10% Heat Inactivated Fetal Bovine Serum+400 μg/ml G418) in flat clear bottom 96-well plates. T24 mScarlet clone 5 cells were negative for nectin-4 expression. Plates were incubated at 37° C. with 5% CO2 overnight. Next day, ADCs were added at final working concentration from 50 nM, 1:4 serially diluted in culture medium. Plates were covered with Breathe-Easy® sealing membrane, placed in BioSpa and scanned in Cytation5 every day for 5 days.
Images of T24-mScarlet cells were captured and analyzed by Cytation5 with Gen5 Image Prime 3.11. Percentage of T24-mScarlet cell killing was calculated by decreased Integrated Intensity (area×mean intensity), normalized to zero hour and no treatment. Data was graphed and analyzed using GraphPad Prism version 9.5.1. IC50 was determined via log(inhibitor) vs. response-variable slope (four parameters) curve fitting.

B1: Ab3 (conjugate)
heavy: EVQLVESGGGLVKPGGSLRLSCAASGFNLNHYNMNWVRQAPGKGLEWVSSVSSGGGFRYYADSVRGRFTISRDNAKNSLYLQMNSLRAEDTAVYYCARGAVFHDAFDIWGQGTLVTVSSASTKGPSVFPLAPSSKSTSGGTAALGCLVKDYFPEPVTVSWNSGALTSGVHTFPAVLQSSGLYSLSSVVTVPSSSLGTQTYICNVNHKPSNTKVDKRVEPKSCDKTHTCPPCPAPEAAGGPSVFLFPPKPKDTLMISRTPEVTCVVVSVSHEDPEVKFNWYVDGVEVHNAKTKPREEQYNSTYRVVSVLTVLHQDWLNGKEYKCKVSNKALPAPIEKTISKAKGQPREPQVYTLPPSREEMTKNQVSLTCLVKGFYPSDIAVEWESNGQPENNYKTTPPVLDSDGSFFLYSKLTVDKSRWQQGNVFSCSVMHEALHNHYTQKSLSLSPGK
light: DIQLTQSPSFLSASVGDRVTITCRASQDISSYLAWYQQKPGKAPKLLIYVASTLQSGVPSRFSGSGSGTEFTLTISSLQPEDFATYYCQQINSYPFTFGQGTKVEIKRTVAAPSVFIFPPSDEQLKSGTASVVCLLNNFYPREAKVQWKVDNALQSGNSQESVTEQDSKDSTYSLSSTLTLSKADYEKHKVYACEVTHQGLSSPVTKSFNRGEC
For the molecule B1, the figures for the ka result with human Nectin-4, in the assay on cyno Nectin-4 and with rat Nectin-4 were “(4.24 ± 0.76) × 10^5 1/Ms”, 432000 M⁻¹ s⁻¹ and 171000 M⁻¹ s⁻¹, respectively. Besides, the results for the kd entry with human Nectin-4, at cyno Nectin-4 and on rat Nectin-4 were “(4.37 ± 1.56) × 10^−4 1/s”, 0.000426 s⁻¹ and 0.000903 s⁻¹, respectively. Also, the IC50 in assay [1] is 0.047 nM.

B2: Ab5 (conjugate)
heavy: QVQLVQSGAEVKKPGASVKVSCKASGYTFTSYYVHWVRQAPGQGLEWMGIINPSIISTSYAQKFQARVTMTRDTSTSTVYMELSSLRSEDTAVYYCARGLNFDAFDIWGQGTLVTVSSASTKGPSVFPLAPSSKSTSGGTAALGCLVKDYFPEPVTVSWNSGALTSGVHTFPAVLQSSGLYSLSSVVTVPSSSLGTQTYICNVNHKPSNTKVDKRVEPKSCDKTHTCPPCPAPEAAGGPSVFLFPPKPKDTLMISRTPEVTCVVVSVSHEDPEVKFNWYVDGVEVHNAKTKPREEQYNSTYRVVSVLTVLHQDWLNGKEYKCKVSNKALPAPIEKTISKAKGQPREPQVYTLPPSREEMTKNQVSLTCLVKGFYPSDIAVEWESNGQPENNYKTTPPVLDSDGSFFLYSKLTVDKSRWQQGNVFSCSVMHEALHNHYTQKSLSLSPGK
light: DIQLTQSPSFLSASVGDRVTITCRASQGISSYLAWYQQKPGKAPKLLIYAASTLQSGVPSRFSGSGSGTEFTLTISSLQPEDFATYYCQQLNNYPFTFGQGTKVEIKRTVAAPSVFIFPPSDEQLKSGTASVVCLLNNFYPREAKVQWKVDNALQSGNSQESVTEQDSKDSTYSLSSTLTLSKADYEKHKVYACEVTHQGLSSPVTKSFNRGEC
For the molecule B2, the ka entry was “(8.78 ± 1.07) × 10^5 1/Ms” in the assay with human Nectin-4, 1.06e+06 M⁻¹ s⁻¹ in the assay on cyno Nectin-4 and 636000 M⁻¹ s⁻¹ in the assay with rat Nectin-4. The kd result with human Nectin-4 was “(3.46 ± 0.48) × 10^−3 1/s”; at cyno Nectin-4, 0.0033 s⁻¹; at rat Nectin-4, 0.0199 s⁻¹. Besides, the IC50 in assay [1] is 0.0766 nM.

B3: Ab4 (conjugate)
heavy: QVQLQESGPGLVKPSETLSLTCTVSGGSISGYYWSWIRQPPGKGLEWIGYIYYSGSTNYNPSLKSRVTISVDTSKNQFSLKLSSVTAADTAVYYCARLGIFFDAFDIWGQGTLVTVSSASTKGPSVFPLAPSSKSTSGGTAALGCLVKDYFPEPVTVSWNSGALTSGVHTFPAVLQSSGLYSLSSVVTVPSSSLGTQTYICNVNHKPSNTKVDKRVEPKSCDKTHTCPPCPAPEAAGGPSVFLFPPKPKDTLMISRTPEVTCVVVSVSHEDPEVKFNWYVDGVEVHNAKTKPREEQYNSTYRVVSVLTVLHQDWLNGKEYKCKVSNKALPAPIEKTISKAKGQPREPQVYTLPPSREEMTKNQVSLTCLVKGFYPSDIAVEWESNGQPENNYKTTPPVLDSDGSFFLYSKLTVDKSRWQQGNVFSCSVMHEALHNHYTQKSLSLSPGK
light: DIQLTQSPSFLSASVGDRVTITCRASQGISSYLAWYQQKPGKAPKLLIYAASTLQSGVPSRFSGSGSGTEFTLTISSLQPEDFATYYCQQFNSYPWTFGQGTKVEIKRTVAAPSVFIFPPSDEQLKSGTASVVCLLNNFYPREAKVQWKVDNALQSGNSQESVTEQDSKDSTYSLSSTLTLSKADYEKHKVYACEVTHQGLSSPVTKSFNRGEC
Turning to B3, in the assay with human Nectin-4, the ka entry is recorded as “(3.59 ± 0.80) × 10^5 1/Ms” and the kd entry is on record as “(7.32 ± 1.19) × 10^−2 1/s”. The molecule further showed a ka in the assay with cyno Nectin-4 of 380000 M⁻¹ s⁻¹. The KD entry on rat Nectin-4 (KD = kd/ka) is “weak binding”. In assay [1], the IC50 was found to be 0.0798 nM.

B4: Ab6 (conjugate)
heavy: QVQLVQSGAEVKKPGASVKVSCKASGYTFTGYYMHWVRQAPGQGLEWMGIINPSGGSTTYAQKFQGRVTMTRDTSTSTVYMELSSLRSEDTAVYYCARGRLGTYFDYWGQGTLVTVSSASTKGPSVFPLAPSSKSTSGGTAALGCLVKDYFPEPVTVSWNSGALTSGVHTFPAVLQSSGLYSLSSVVTVPSSSLGTQTYICNVNHKPSNTKVDKRVEPKSCDKTHTCPPCPAPEAAGGPSVFLFPPKPKDTLMISRTPEVTCVVVSVSHEDPEVKFNWYVDGVEVHNAKTKPREEQYNSTYRVVSVLTVLHQDWLNGKEYKCKVSNKALPAPIEKTISKAKGQPREPQVYTLPPSREEMTKNQVSLTCLVKGFYPSDIAVEWESNGQPENNYKTTPPVLDSDGSFFLYSKLTVDKSRWQQGNVFSCSVMHEALHNHYTQKSLSLSPGK
light: SYVLTQPPSVSVAPGQTARITCGGNNIGSKSVHWYQQKPGQAPVLVVYDDSDRPSGIPERFSGSNSGNTATLTISRVEAGDEADYYCQVWDRSSDQVVFGGGTKLTVLGQPKAAPSVTLFPPSSEELQANKATLVCLISDFYPGAVTVAWKADSSPVKAGVETTTPSKQSNNKYAASSYLSLTPEQWKSHRSYSCQVTHEGSTVEKTVAPTECS
As for B4, in the assay with human Nectin-4, the ka result is reported as “(1.78 ± 0.41) × 10^6 1/Ms” and the kd entry is “(1.63 ± 0.25) × 10^−1 1/s”. Besides, on cyno Nectin-4 (KD = kd/ka), the KD result was “heterogeneous kinetics*”. In the assay on rat Nectin-4, this molecule registered a ka of 925000 M⁻¹ s⁻¹ and a kd of 0.105 s⁻¹. Further, the IC50 in assay [1] is 0.0587 nM.

A word on the IC50: it is the concentration at which inhibition is half-maximal.
